This is an account of results in patent publication US20050221433A1 (Regeneron, published 2005).

Test [1] addresses T1, recombinant human IL-18 (human, UniProt Q14116 37-193).
T1 construct: Analyte in the BiaCore assay and stimulus (4 pM) in the NFkB-luciferase bioassay; also called hIL-18
T1 sequence (looked up): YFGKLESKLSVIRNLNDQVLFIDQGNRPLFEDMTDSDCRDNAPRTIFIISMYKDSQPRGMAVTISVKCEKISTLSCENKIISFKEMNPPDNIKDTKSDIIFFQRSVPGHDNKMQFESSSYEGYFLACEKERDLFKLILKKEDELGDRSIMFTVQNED
Briefly: printed in the IC50 (M) column of Table 2 (HEK293/NFkB-luciferase hIL-18 inhibition bioassay, CHO transient supernatant). From the text:
hIL-18 Inhibition. The HEK293/NFkB-luciferase bioassay is used to determine the ability of the IL-18-specific polypeptides of the invention to block the activity of human IL-18 (hIL-18). Human embryonic kidney 293, HEK293, cells, were transfected with an NFκB-luciferase reporter plasmid. By placing an NFκB promoter element upstream of the luciferase gene one can monitor NFκB activity in cells. Because IL-18 signaling is mediated by NFκB, when cells containing the 293/NFκB luciferase construct and the IL-18 receptors are stimulated with hIL-18, the luciferase gene is expressed and luciferase activity can be detected in cell lysates. A stable, transfected, cell line, HEK293/D9, was selected for good response to IL-1 as detected by luciferase activity. This line was transfected with the human IL-18Rα (IL-IRrp) and IL-18Rβ (IL1RAcPL) receptors and stable cell lines that responded to IL-18 with a strong luciferase signal were isolated. These cells are called hIL-18-NFκB-luciferase cells.
For the assay, hIL-18-NFκB-Luciferase cells were suspended at 1.25×10⁵ cells per ml in medium and 0.08 ml of cells plated (10,000 cells per well) into the wells of a 96 well tissue culture plate. […] Plates were incubated at room temperature for ˜10 minutes and then read on a Victor multilabel counter (Luminescence 1 sec/well).

The target of test [2] is T1, recombinant human IL-18. Briefly: cell-based or functional assay.

B1: hIL18BPa (72-192).TG.hFc (Fc fusion)
chain: VEVPLNGTLSLSCVACSRFPNFSILYWLGNGSFIEHLPGRLWEGSTSRERGSTGTQLCKALVLEQLTPALHSTNFSCVLVDPEQVVQRHVVLAQLWAGLRATLPPTQEALPSSHSSPQQQGTG
notes: not shown: hFc (human Fc)
Consider B1, for which the binding result in the test with recombinant human IL-18 [1] is on record as “no binding”.

B2: hIL18BPa (1-181) (C49S, C129S).His (receptor)
chain: TPVSQTTTAATASVRSTKDPSPSQPPVFPAAKQCPALEVTWPEVEVPLNGTLSLSCVACSRFPNFSILYWLGNGSFIEHLPGRLWEGSTSRERGSTGTQLSKALVLEQLTPALHSTNFSCVLVDPEQVVQRHVVLAQLWAGLRATLPPTQEALTGHHHHHHHH
For the molecule B2, the “IC50 (M), HEK293/NFkB-luciferase bioassay” value with recombinant human IL-18 [2] worked out at 1.23e-10 M.

B3: hIL18BPa (58-192) (C129S).His (receptor)
chain: AAKQCPALEVTWPEVEVPLNGTLSLSCVACSRFPNFSILYWLGNGSFIEHLPGRLWEGSTSRERGSTGTQLSKALVLEQLTPALHSTNFSCVLVDPEQVVQRHVVLAQLWAGLRATLPPTQEALPSSHSSPQQQGHHHHHHHH
Consider B3, for which the “IC50 (M), HEK293/NFkB-luciferase bioassay” value in the test with recombinant human IL-18 [2] stood at 3.9e-11 M.

B4: hIL18BPa (1-192) (C49S, C129S).His (receptor)
chain: TPVSQTTTAATASVRSTKDPSPSQPPVFPAAKQCPALEVTWPEVEVPLNGTLSLSCVACSRFPNFSILYWLGNGSFIEHLPGRLWEGSTSRERGSTGTQLSKALVLEQLTPALHSTNFSCVLVDPEQVVQRHVVLAQLWAGLRATLPPTQEALPSSHSSPQQQGTGHHHHHHHH
Consider B4, for which the “IC50 (M), HEK293/NFkB-luciferase bioassay” value with recombinant human IL-18 [2] turned out to be 8.59e-11 M.
